According to patent publication US20190367615A1 (BEIJING HANMI PHARM, published 2019):

Experiments:
[1] = target: T1, Recombinant human PD-1 (Sino Biological Inc., Catalog Number 10377-H08H) (human, UniProt Q15116 25-167); test: ELISA, coated recombinant human PD-1 (1 ug/mL), detection with anti-mouse IgG-HRP, OD450nm
T1 construct: Bought protein; also called antigen PD-1
Experimental: (§1) The plate was washed five times with PBST. […] The plate was washed five times with PBST. […] The plate was washed five times with PBST. 100 μL/well of colorimetric substrate TMB was added and incubated at room temperature for 10 minutes. Color development was terminated by adding 100 μL/well of 1 M H₂SO₄. The absorbance at 450 nm was read on a microplate reader.

[2] = target: T2, Recombinant human PD-1-Fc (human, UniProt Q15116 25-167, limits assumed); test: competition ELISA, coated human PD-1-Fc, blocked ligand biotin-labeled PD-L1 (final 10 nM), streptavidin-HRP, OD450nm
T2 construct: also called recombinant human PD-1-Fc protein; not shown: Fc part
Experimental: as §1

T1 sequence (Q15116 25-167 limits assumed): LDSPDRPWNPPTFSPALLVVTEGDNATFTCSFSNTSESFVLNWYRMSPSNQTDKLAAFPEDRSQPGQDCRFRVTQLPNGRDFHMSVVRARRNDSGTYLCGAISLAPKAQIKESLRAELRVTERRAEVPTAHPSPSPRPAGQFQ
T2 sequence (Q15116 25-167 limits assumed): as above

EC50 [1]: 0.052 nM | IC50 [2]: 0.838 nM
B1: murine anti-human PD-1 monoclonal antibody secreted by Clone No. 2 (antibody, V domains shown)
VH: EVQLQESGGGLVKPGGSLKLSCAASGFTFSSYGMSWVRQTPEKRLEWVASISGGGRYTYYPDSMKGRFTISRDNAKNNLHLQMSSLRSEDTALYYCVYEYFYTMDYWGQGTSVTVSS
VL: DIVLTQSPATLSVTPGDSVSLSCRANQSISNNLHWYQQRSHESPRLLIRFASQSISGIPSRFSGSGSGTDFTLSINSVETEDFGMYFCQQSDNWPLTFGAGTKLEIK
notes: Hybridoma culture supernatant; Clone No. 2 is the only clone named, so the tie is implicit
